Numbering of substitutions follows the chain as printed.
Assays:
[1] = molecular target: rat acid sensing ion channel subtype 1a (homomeric, expressed in Xenopus laevis oocytes) (rat) (UniProt P55926); experiment: inhibition of rASIC1a currents in Xenopus oocytes
[2] = molecular target: rat acid sensing ion channel subtype 1a (homomeric, expressed in Xenopus laevis oocytes) (rat) (UniProt P55926); experiment: cell-based or functional assay
[3] = molecular target: T1, rat acid sensing ion channel subtype 3 (homomeric, expressed in Xenopus laevis oocytes) (rat, UniProt O35240 1-533); experiment: cell-based or functional assay
T1 sequence: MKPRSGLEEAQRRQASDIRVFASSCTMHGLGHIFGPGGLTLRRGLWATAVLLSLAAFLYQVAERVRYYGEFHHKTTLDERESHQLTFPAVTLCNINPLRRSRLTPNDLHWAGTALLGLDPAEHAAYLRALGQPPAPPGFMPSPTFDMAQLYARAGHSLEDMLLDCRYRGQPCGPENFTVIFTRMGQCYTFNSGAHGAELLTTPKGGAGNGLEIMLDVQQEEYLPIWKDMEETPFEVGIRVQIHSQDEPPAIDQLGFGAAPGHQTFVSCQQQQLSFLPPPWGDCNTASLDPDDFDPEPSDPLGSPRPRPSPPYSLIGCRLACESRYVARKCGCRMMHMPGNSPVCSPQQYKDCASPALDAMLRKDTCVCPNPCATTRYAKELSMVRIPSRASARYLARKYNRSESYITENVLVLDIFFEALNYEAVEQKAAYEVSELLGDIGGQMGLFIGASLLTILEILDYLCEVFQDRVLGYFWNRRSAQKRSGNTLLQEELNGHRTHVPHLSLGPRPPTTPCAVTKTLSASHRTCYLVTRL

[4] = molecular target: T2, rat acid sensing ion channel subtype 2a (homomeric, expressed in Xenopus laevis oocytes) (rat, UniProt Q62962 1-512); experiment: cell-based or functional assay
T2 sequence: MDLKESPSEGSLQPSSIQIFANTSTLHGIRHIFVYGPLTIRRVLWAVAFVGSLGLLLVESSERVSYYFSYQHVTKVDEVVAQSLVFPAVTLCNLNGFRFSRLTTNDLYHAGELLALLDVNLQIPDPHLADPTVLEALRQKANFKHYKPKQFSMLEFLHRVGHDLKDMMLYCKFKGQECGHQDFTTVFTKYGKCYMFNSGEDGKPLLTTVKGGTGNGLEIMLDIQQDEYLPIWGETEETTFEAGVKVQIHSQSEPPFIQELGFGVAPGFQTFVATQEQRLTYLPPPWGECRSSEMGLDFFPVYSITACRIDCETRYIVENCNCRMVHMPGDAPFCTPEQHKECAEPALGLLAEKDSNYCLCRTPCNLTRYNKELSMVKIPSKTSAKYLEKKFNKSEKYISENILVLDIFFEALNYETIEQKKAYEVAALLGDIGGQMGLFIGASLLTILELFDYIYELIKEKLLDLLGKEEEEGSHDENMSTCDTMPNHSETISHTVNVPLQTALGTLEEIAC

[5] = molecular target: human acid sensing ion channel subtype 1a (homomeric, expressed in Xenopus laevis oocytes) (human), P78348; experiment: cell-based or functional assay
[6] = molecular target: rat acid sensing ion channel subtype 1b (homomeric, expressed in Xenopus laevis oocytes) (rat), P55926; experiment: cell-based or functional assay
Chain of rat acid sensing ion channel subtype 1b (homomeric, expressed in Xenopus laevis oocytes) (rat), P55926 (P55926 whole entry): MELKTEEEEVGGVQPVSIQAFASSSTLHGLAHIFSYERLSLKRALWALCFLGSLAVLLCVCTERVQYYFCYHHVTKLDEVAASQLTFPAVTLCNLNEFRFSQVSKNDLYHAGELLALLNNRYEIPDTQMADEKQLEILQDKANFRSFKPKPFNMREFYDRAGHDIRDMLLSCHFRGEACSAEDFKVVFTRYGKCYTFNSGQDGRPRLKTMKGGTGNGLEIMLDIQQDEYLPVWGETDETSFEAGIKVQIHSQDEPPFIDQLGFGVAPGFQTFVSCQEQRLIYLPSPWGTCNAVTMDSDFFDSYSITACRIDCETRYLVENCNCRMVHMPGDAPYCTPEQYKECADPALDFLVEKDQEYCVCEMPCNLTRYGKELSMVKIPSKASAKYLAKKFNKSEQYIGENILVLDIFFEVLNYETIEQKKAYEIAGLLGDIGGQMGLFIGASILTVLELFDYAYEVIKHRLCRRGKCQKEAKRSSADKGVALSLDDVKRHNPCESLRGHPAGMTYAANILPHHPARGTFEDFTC

Chain of rat acid sensing ion channel subtype 1a (homomeric, expressed in Xenopus laevis oocytes) (rat) (P55926 whole entry): as above
Chain of human acid sensing ion channel subtype 1a (homomeric, expressed in Xenopus laevis oocytes) (human), P78348 (P78348 whole entry): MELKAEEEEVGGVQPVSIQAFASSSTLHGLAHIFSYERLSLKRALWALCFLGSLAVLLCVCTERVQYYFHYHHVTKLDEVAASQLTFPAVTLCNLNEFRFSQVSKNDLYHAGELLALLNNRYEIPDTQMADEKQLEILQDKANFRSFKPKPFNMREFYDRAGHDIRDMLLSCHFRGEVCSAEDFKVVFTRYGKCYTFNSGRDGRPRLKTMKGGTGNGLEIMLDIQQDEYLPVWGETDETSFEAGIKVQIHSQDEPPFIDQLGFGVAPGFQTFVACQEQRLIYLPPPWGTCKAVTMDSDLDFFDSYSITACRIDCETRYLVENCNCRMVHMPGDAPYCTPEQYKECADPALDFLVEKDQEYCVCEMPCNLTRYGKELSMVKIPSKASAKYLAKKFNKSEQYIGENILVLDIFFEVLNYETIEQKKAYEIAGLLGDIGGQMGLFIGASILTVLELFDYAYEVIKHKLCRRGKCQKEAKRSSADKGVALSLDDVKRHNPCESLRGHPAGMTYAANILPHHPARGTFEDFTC

recombinant Hi1a (π-hexatoxin-Hi1a) expressed in E. coli
IC50 [1]: 0.464 nM

recombinant Hi1d (peptide)
% Residual Current [2]: 0% | IC50 (inhibition of acid-evoked current, TEVC, Xenopus oocytes) [2]: 193 nM | time to full reversal of inhibition on washout (TEVC) [2]: < 60 s

recombinant Hi1a (π-hexatoxin-Hi1a) expressed in E. coli (peptide)
% Residual Current [2]: 30% | IC50 (inhibition of acid-evoked current, TEVC, Xenopus oocytes) [2]: 0.46 nM

C-terminal ICK domain of Hi1a (Hi1a-C), produced in E. coli
IC50 [1]: > 30000 nM

N-terminal ICK domain of Hi1a (Hi1a-N), produced in E. coli (peptide)
IC50 (inhibition of acid-evoked current, TEVC, Xenopus oocytes) [2]: 1000 nM | fold lower potency than PcTx1 or full-length Hi1a [2]: 1000 fold

B1: recombinant engineered peptide #1 (EP 1), two copies of PcTx1 joined by a linker (designed binder)
peptide: SEDCIPKWKGCVNRHGDCCEGLECWKRRRSFEVCVPKTEDCIPKWKGCVNRHGDCCEGLECWKRRRSFEVCVPKTPKT
% Residual Current [2]: 0% | IC50 (inhibition of acid-evoked current, TEVC, Xenopus oocytes) [2]: 64 nM | fold increase in IC50 against wild-type Hi1a [2]: 200 fold

B2: recombinant engineered peptide #2 (EP 2), as EP 1 with a Glu to Gly mutation in the linker (designed binder)
peptide: B1 peptide with E39G
% Residual Current [2]: 0% | IC50 (inhibition of acid-evoked current, TEVC, Xenopus oocytes) [2]: 215 nM | fold increase in IC50 against wild-type Hi1a [2]: 500 fold

B3: recombinant Hi1a (π-hexatoxin-Hi1a) expressed in E. coli (peptide)
peptide: SNECIRKWLSCVDRKNDCCEGLECYKRRHSFEVCVPIPGFCLVKWKQCDGRERDCCAGLECWKRSGNKSSVCAPIT
fold higher potency at ASIC1a over this subtype (from 1 µM Hi1a, TEVC) [3]: > 2000 fold | selectivity for ASIC1a over this subtype (from 30 nM Hi1a, TEVC) [3]: ≥ 50 fold | fold higher potency at ASIC1a over this subtype (from 1 µM Hi1a, TEVC) [4]: > 2000 fold | selectivity for ASIC1a over this subtype (from 30 nM Hi1a, TEVC) [4]: ≥ 50 fold | % Residual Current [5]: 20% | IC50 (inhibition of acid-evoked current, TEVC, Xenopus oocytes) [5]: 0.59 nM | fold higher potency at ASIC1a over this subtype (from 1 µM Hi1a, TEVC) [6]: > 2000 fold | selectivity for ASIC1a over this subtype (from 30 nM Hi1a, TEVC) [6]: > 50 fold

Source: patent US20200061156A1 (UNIVERSITY OF QUEENSLAND, published 2020)
